Laboratory results from the supplement of paper PMC10724198.
± gives the standard deviation of the averaged measurements.

Test system: Saccharomyces cerevisiae
Assay: protein stability index of tFT-peptide fusion (C-terminal peptide) (PSI (0-1 scale)); higher = more stable (slower turnover)
Conditions: genetic background: wild type; temperature: 30 C
Protocol: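 Multiplexed protein stability (MPS) profiling in S. cerevisiae. Random 12-aa peptides (tFT-X12 library) are fused to the C-terminus of a sfGFP-mCherry tandem fluorescent timer, after mCherry and a GGGS linker. Cells are FACS-sorted into 8 mCherry/sfGFP bins and deep-sequenced. The protein stability index (PSI) is the read-weighted bin average, scaled from 0 (unstable) to 1 (stable). Only peptides with >10 reads are reported; cells were grown at 30 °C in SC-His with glucose.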
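Also: PSI is a weighted mean of sequencing reads over stability bins, variants kept only with over 10 reads, mCherry proximal and sfGFP distal, peptide attached via GGGS linker.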

| Sequence | protein stability index |
| --- | --- |
| EYVDVDVQDCRG | 0.692 ± 0.035 |
| FAGLVSPASLHP | 0.686 ± 0.026 |
| FAISTSMVNLAM | 0.681 ± 0.039 |
| FAPSPVPPLAPF | 0.682 ± 0.053 |
| FASLVSPWFDLV | 0.716 ± 0.13 |
| FASLVVSYGAGY | 0.6712 ± 0.0019 |
| FASVVADVFQFP | 0.772 ± 0.088 |
| FCCGGEFAWCLG | 0.695 ± 0.016 |
| FCCRLSGFSILG | 0.663 ± 0.033 |
| FCFFGRPCLSSV | 0.714 ± 0.14 |
| FCKTKVRDKATR | 0.73 ± 0.035 |
| FCLLPPFPFFRS | 0.661 ± 0.022 |
| FCLSPGYHSQLC | 0.692 ± 0.023 |
| FCTDFDTLCREC | 0.647 ± 0.021 |
| FCVFSFAAPGFP | 0.6746 ± 0.00074 |
| FCWRDIICAFFR | 0.72 ± 0.019 |
| FCWSFGVLLSFS | 0.559 ± 0.0099 |
| FDCTSCIPFRFL | 0.679 ± 0.035 |
| FDLLSVGRARSW | 0.716 ± 0.036 |
| FDSLFVSLSFAI | 0.661 ± 0.03 |
| FFAPPSSPSFSR | 0.822 ± 0.063 |
| FFDFCACICTFF | 0.655 ± 0.045 |
| FFGSFVFSLLFY | 0.6025 ± 0.0047 |
| FFLLPHPSRFFP | 0.734 ± 0.025 |
| FFLSDDALVYNH | 0.788 ± 0.065 |
| FFLWSLLGGLPC | 0.661 ± 0.02 |

| Sequence | protein stability index |
| --- | --- |
| FFPLSALFARPS | 0.676 ± 0.0073 |
| FFPQLRPNSSTS | 0.724 ± 0.042 |
| FFRFLLPFLPPS | 0.70866 ± 0.0006 |
| FFSPPLPPAPLT | 0.775 ± 0.057 |
| FFSVCLVFGLPG | 0.543 ± 0.013 |
| FFTDACQRVMKG | 0.633 ± 0.049 |
| FFWFIASTNFSS | 0.609 ± 0.015 |
| FGAFCSWLLLHS | 0.61 ± 0.026 |
| FGCDCFCPFCLR | 0.706 ± 0.019 |
| FGDTYICKPFWG | 0.765 ± 0.033 |
| FGESPWARVGGG | 0.5749 ± 0.005 |
| FGFSAVCFGNLC | 0.6729 ± 0.0024 |
| FGGSFEGRGRYY | 0.737 ± 0.018 |
| FGTVIEVVCGVM | 0.5277 ± 0.0014 |
| FGVGSITDEELD | 0.735 ± 0.036 |
| FGYEPVSLRAEF | 0.675 ± 0.029 |
| FILSPGHFHRVL | 0.688 ± 0.076 |
| FILTSLPSLCFP | 0.696 ± 0.04 |
| FILWSLIMGPYA | 0.522 ± 0.019 |
| FIPGGPSGFCFR | 0.669 ± 0.075 |
| FIVGIQTKPVKL | 0.661 ± 0.11 |
| FKFCLRSESSSE | 0.66 ± 0.085 |
| FKIFSGLVTLGG | 0.7337 ± 0.0036 |
| FKKTSRHTINRK | 0.757 ± 0.023 |
| FKNVTGWLFFCR | 0.702 ± 0.064 |
| FKTLIRKEQESE | 0.754 ± 0.013 |

| Sequence | protein stability index |
| --- | --- |
| FLCLLPLRLFGI | 0.603 ± 0.021 |
| FLDFLFLLVPSV | 0.554 ± 0.019 |
| FLDTSSYFMFAS | 0.7123 ± 0.007 |
| FLFCLLGSFRSF | 0.5829 ± 0.004 |
| FLGEKTCRSIIS | 0.646 ± 0.083 |
| FLGFGGAWSWGG | 0.766 ± 0.16 |
| FLHVSLSFSCSL | 0.541 ± 0.0063 |
| FLLPQLFVSSSF | 0.699 ± 0.035 |
| FLLSVVQGAVHQ | 0.6 ± 0.036 |
| FLLVPSPPSFTH | 0.715 ± 0.12 |
| FLPCPPSPPSPR | 0.765 ± 0.06 |
| FLPQCLGSNFHL | 0.725 ± 0.016 |
| FLRLVRIPNQVQ | 0.6531 ± 0.0014 |
| FLSRPIGAAIWA | 0.543 ± 0.026 |
| FLSYPFLSRPFL | 0.804 ± 0.058 |
| FLTSTLVSSGGD | 0.676 ± 0.034 |
| FLTVDGKLMRGP | 0.699 ± 0.021 |
| FLVCFPFALFGA | 0.495 ± 0.052 |
| FLYELGTTSSPR | 0.73 ± 0.025 |
| FLYPPAHPLLPP | 0.7 ± 0.024 |
| FMPRPSNRLSPS | 0.723 ± 0.0078 |
| FNGAISESGLPT | 0.664 ± 0.053 |
| FNIPYLVQATGD | 0.676 ± 0.09 |
| FNTCCQNTWKVK | 0.677 ± 0.15 |
| FPAPPPPPRPAS | 0.69 ± 0.033 |
| FPFCAFPPSPTC | 0.75 ± 0.038 |

| Sequence | protein stability index |
| --- | --- |
| FPFLAPSLVLPT | 0.569 ± 0.012 |
| FPFPTLSDLRPT | 0.698 ± 0.036 |
| FPGLHVNHPAWP | 0.688 ± 0.027 |
| FPHPPPSLPSPR | 0.789 ± 0.064 |
| FPHSPPFRLPLS | 0.759 ± 0.089 |
| FPLHPLLTSISL | 0.68 ± 0.032 |
| FPLHSSLSGPPC | 0.737 ± 0.0083 |
| FPLLGRCCRAVQ | 0.682 ± 0.043 |
| FPLPHVIPSPAS | 0.559 ± 0.022 |
| FPLPLPVLSSPS | 0.646 ± 0.15 |
| FPLSFLLDLLLV | 0.509 ± 0.013 |
| FPLTKASSPSLL | 0.672 ± 0.073 |
| FPLVPPPSSPLF | 0.687 ± 0.022 |
| FPPAHPPPCLPP | 0.6473 ± 0.003 |
| FPPPLPLLSPLP | 0.671 ± 0.079 |
| FPPPPPPPPPSP | 0.723 ± 0.028 |
| FPPPPPVPPPLS | 0.723 ± 0.047 |
| FPPPPRPSSPLL | 0.693 ± 0.024 |
| FPPPPYPEFYPC | 0.798 ± 0.077 |
| FPPSDPAPTLPP | 0.749 ± 0.088 |
| FPRFGRGVGRRT | 0.67 ± 0.0073 |
| FPRPSLPFPPHR | 0.609 ± 0.00064 |
| FPRRLLPLSPPP | 0.704 ± 0.015 |
| FPRRPSPGPLIS | 0.678 ± 0.035 |
| FPSCVLGGWYCG | 0.7114 ± 0.0016 |
| FPSPSLSSLPPL | 0.725 ± 0.058 |

| Sequence | protein stability index |
| --- | --- |
| FQCLPHGFYFGA | 0.661 ± 0.0098 |
| FQFSFLRFGGCA | 0.651 ± 0.048 |
| FQLFLPPFRLPP | 0.801 ± 0.18 |
| FQSSSKSRPRPA | 0.669 ± 0.057 |
| FQWAPGIDTVYC | 0.705 ± 0.058 |
| FRAYCLPCNYHR | 0.68 ± 0.052 |
| FRCQHVRVSASF | 0.799 ± 0.028 |
| FRDEVLGSGVGS | 0.65 ± 0.017 |
| FRELIRPSKENR | 0.664 ± 0.025 |
| FRFSELPTGFGQ | 0.664 ± 0.058 |
| FRGTLRFYRPVN | 0.696 ± 0.016 |
| FRGTVYRGTRPR | 0.622 ± 0.072 |
| FRKALRIQSVGS | 0.6926 ± 0.0019 |
| FRLAPPSVYDFV | 0.7008 ± 0.002 |
| FRLDRYLGGKIG | 0.641 ± 0.063 |
| FRNESLVAGKSG | 0.717 ± 0.076 |
| FRPPPTLLLRPH | 0.676 ± 0.026 |
| FRRHRHDVLTVR | 0.599 ± 0.05 |
| FRRRYGCLLRGE | 0.6573 ± 0.004 |
| FRSRFGPCLRSV | 0.649 ± 0.027 |
| FRTPASLSLPLS | 0.676 ± 0.021 |
| FSARCGGGLDWS | 0.722 ± 0.038 |
| FSASMSTIWQTG | 0.602 ± 0.034 |
| FSCKRMISKTGF | 0.669 ± 0.035 |
| FSFCRLPDSPSS | 0.698 ± 0.026 |
| FSFQTLPTPTSP | 0.655 ± 0.06 |

| Sequence | protein stability index |
| --- | --- |
| FSGCVEIYWHWL | 0.662 ± 0.011 |
| FSGLNWLLCHSK | 0.704 ± 0.015 |
| FSGWVFAPFFFF | 0.644 ± 0.048 |
| FSHPCPLSGLYP | 0.716 ± 0.015 |
| FSHPLLRARRTW | 0.656 ± 0.086 |
| FSLGPSPLRPHA | 0.611 ± 0.086 |
| FSLLSSSSFFVL | 0.591 ± 0.01 |
| FSLPPNPQPKLL | 0.741 ± 0.07 |
| FSLSRLCFCFRS | 0.529 ± 0.024 |
| FSNFVYFFFRSS | 0.666 ± 0.12 |
| FSPPLGRFLLRH | 0.707 ± 0.062 |
| FSPSFGSLLVIC | 0.556 ± 0.02 |
| FSPVSAPPTRVS | 0.703 ± 0.042 |
| FSRLLCPPSFSF | 0.658 ± 0.0072 |
| FSRVRNVLGLGG | 0.73 ± 0.12 |
| FSSAINSFAFQP | 0.683 ± 0.026 |
| FSSHGFSSFLLL | 0.691 ± 0.084 |
| FSSSMCLGMRLR | 0.639 ± 0.096 |
| FSSSSLFFSRTL | 0.677 ± 0.052 |
| FSVFFDFIIARF | 0.632 ± 0.067 |
| FSVFSCLVCSLD | 0.575 ± 0.011 |
| FSVWCDLFGFFC | 0.674 ± 0.075 |
| FTLRILSRPVIP | 0.656 ± 0.046 |
| FTQVIQQQRRVV | 0.627 ± 0.067 |
| FTSGESVCGGRV | 0.698 ± 0.0026 |
